Laboratory results from doi:10.1101/2024.07.12.603331.

Target: HAstV8 spike protein VP25 (residues S484 to R708) (human astrovirus 8 (HAstV8))
Assay: BLI

HAstV8 spike protein VP25 (residues S484 to R708) (human astrovirus 8 (HAstV8)), sequence (Q9IFX1 424-648 limits assumed): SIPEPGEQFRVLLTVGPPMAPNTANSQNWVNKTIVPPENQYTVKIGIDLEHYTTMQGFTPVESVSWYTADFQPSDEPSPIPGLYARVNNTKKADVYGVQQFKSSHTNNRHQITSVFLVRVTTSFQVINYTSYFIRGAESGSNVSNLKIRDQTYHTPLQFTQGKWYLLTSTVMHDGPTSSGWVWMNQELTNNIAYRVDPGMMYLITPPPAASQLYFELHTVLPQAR
neonatal Fc receptor (FcRn), recombinant ectodomains, sequence (P55899 24-297): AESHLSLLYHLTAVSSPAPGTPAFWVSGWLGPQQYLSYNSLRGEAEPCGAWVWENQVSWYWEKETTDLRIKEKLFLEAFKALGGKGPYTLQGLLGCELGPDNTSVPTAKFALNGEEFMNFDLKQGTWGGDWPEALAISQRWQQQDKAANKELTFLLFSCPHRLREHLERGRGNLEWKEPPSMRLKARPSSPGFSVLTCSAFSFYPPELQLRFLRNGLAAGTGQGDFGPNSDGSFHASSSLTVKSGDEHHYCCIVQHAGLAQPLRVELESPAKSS
neonatal Fc receptor (FcRn), recombinant ectodomains, sequence (P61769 21-119): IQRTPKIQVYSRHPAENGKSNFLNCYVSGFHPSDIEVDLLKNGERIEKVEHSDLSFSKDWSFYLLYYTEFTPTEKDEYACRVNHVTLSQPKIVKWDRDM

neonatal Fc receptor (FcRn), recombinant ectodomains (from UniProt P55899;P61769) (complex)
Kd: 623 nM
half-life: 4.68 s
